Assay results: the Human Domainome abundance scans (Beltran et al. 2025)

B1: Telomeric repeat-binding factor 2, residues 489 to 542; numbered along this chain, Q15554 (parent)
chain: KQKWTVEESEWVKAGVQKYGEGNWAAISKNYPFVNRTAVMIKDRWRTMKRLGMN

Variants of: B1
Experiment: abundance fitness (aPCA) (normalised: wild type 0, dead -1); higher = more abundant; growth selection in yeast, the domain comes from the species named
Conditions: Homo sapiens

Abundance fitness: each site, then its substitutions
G20: I -0.621, S -0.488, T -0.99, P -0.813, H -0.126, W -0.541, E -0.954, Y -0.781, L -1.06, A -1.11, Q -0.587, V -0.918
T5: E -0.272, V -0.789, L -0.75, Q -0.502, D -0.38, I -0.669, S -0.105, F -0.826, G -0.421, P -0.398, M -0.21, W -0.631, K -0.161, R -0.557
Q2: I 0.29, H 0.518, V 0.271, N 0.333, R -0.202, L -0.017, P -0.981, G -0.163, C -0.248, S -0.175, M -0.191, W -0.34, D 0.184, A -0.138, F 0.725, E 0.254
E21: Y -0.123, G -0.389, S -0.323, W -0.502, A -0.314, C -0.432, D -0.26, F -0.1, K -0.44, H -0.598, M -0.829, R -0.704, T -0.478, Q -0.634
K13: F -0.24, I -0.163, N -0.232, C -0.534, H -0.13, L -0.112, E -0.25, V -0.021, R 0.017, G -0.184, M -0.013, S -0.128, D -0.332, A -0.242, Y -0.072, Q 0.076
V12: N -0.844, Q -0.895, P -0.325, W -0.744, M -0.132, F -0.75, S -0.356, G -0.495, K -0.626, R -0.682, C -0.362, H -1.02, A -0.423, E -0.262, T -0.144, Y -0.855
K1: M -0.501, C -0.578, D -0.17, R -0.631, G -0.585, E -0.323
E8: M -0.238, T -0.485, G -0.394, V -0.596, L -0.19, R -0.638, Y 0.233, I -0.339, P -0.598, Q -0.566, A -0.381, N -0.707, S -0.65, K -1, W -0.153
E7: S -0.67, C -0.607, P -0.401, Q -0.075, L -0.258, T -0.196, Y -0.329, N -0.721, M -0.015, D -0.141, V -0.459, W -0.443, H -0.377, A -0.242, R -0.221, G -0.834, I -0.427, F -0.47
S9: R -0.671, M 0.39, T -0.15, V -0.483, L -0.31, I -0.021, G -0.354, C -0.343, Y -0.481, W -0.335, N 0.107, A -0.219
Y19: T -0.395, M -0.464, I -0.051, V -1.04, L -0.51, P -0.083, K -0.004, R -0.162, G -0.912, Q -0.225, S -0.375, H -0.28, E -0.321, C -0.528, A -0.421, N -0.242, W -0.557
E10: S -0.311, K -0.314, D -0.486, V -0.359, C -0.277, Q -0.177, G -0.38, I -0.529, F -0.255, H 0.044, M -0.055
